Assay results reported in PMC9152131.

Molecular target: RFP-Hrs (UniProt O14964)
UniProt O14964, sequence (O14964 whole entry): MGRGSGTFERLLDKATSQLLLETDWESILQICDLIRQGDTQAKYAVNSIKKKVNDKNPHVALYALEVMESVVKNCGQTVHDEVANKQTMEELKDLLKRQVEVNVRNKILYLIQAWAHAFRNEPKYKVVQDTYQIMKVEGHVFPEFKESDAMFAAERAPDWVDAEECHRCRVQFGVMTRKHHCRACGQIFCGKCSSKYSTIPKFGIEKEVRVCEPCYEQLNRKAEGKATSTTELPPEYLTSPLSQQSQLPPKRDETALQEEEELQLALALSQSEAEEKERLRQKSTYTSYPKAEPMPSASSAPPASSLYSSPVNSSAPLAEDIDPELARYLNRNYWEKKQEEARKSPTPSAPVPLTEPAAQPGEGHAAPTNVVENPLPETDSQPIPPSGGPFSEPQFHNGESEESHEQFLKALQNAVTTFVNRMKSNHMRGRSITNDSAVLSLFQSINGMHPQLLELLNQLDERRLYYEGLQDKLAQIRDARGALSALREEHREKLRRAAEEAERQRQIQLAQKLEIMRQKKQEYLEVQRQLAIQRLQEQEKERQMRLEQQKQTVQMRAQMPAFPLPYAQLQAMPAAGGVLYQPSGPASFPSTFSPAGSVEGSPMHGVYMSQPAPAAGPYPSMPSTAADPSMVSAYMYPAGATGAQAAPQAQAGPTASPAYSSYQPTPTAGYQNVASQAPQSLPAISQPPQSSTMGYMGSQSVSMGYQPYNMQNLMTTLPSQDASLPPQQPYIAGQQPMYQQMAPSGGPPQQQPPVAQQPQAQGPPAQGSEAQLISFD

- percentage of transfected N2a cells exhibiting rapalog-induced Hrs recruitment to the centrosome/centriole (transport assay with BicD2-GFP-FKBP, kinesin tail-FRB-Myc and linker AP21967): 13%
B1: KIF13B-FRB-Myc (pBa-FRB-3myc-KIF13B tail 442–1826) (domain or fragment)
chain: KVGDDKCFLVNLNADPALNELLVYYLKEHTLIGSANSQDIQLCGMGILPEHCIIDITSEGQVMLTPQKNTRTFVNGSSVSSPIQLHHGDRILWGNNHFFRLNLPKKKKKAEREDEDQDPSMKNENSSEQLDVDGDSSSEVSSEVNFNYEYAQMEVTMKALGSNDPMQSILNSLEQQHEEEKRSALERQRLMYEHELEQLRRRLSPEKQNCRSMDRFSFHSPSAQQRLRQWAEEREATLNNSLMRLREQIVKANLLVREANYIAEELDKRTEYKVTLQIPASSLDANRKRGSLLSEPAIQVRRKGKGKQIWSLEKLDNRLLDMRDLYQEWKECEEDNPVIRSYFKRADPFYDEQENHSLIGVANVFLESLFYDVKLQYAVPIINQKGEVAGRLHVEVMRLSGDVGERIAGGDEVAEVSFEKETQENKLVCMVKILQATGLPQHLSHFVFCKYSFWDQQEPVIVAPEVDTSSSSVSKEPHCMVVFDHCNEFSVNITEDFIEHLSEGALAIEVYGHKINDPRKNPALWDLGIIQAKTRSLRDRWSEVTRKLEFWVQILEQNENGEYCPVEVISAKDVPTGGIFQLRQGQSRRVQVEVKSVQESGTLPLMEECILSVGIGCVKVRPLRAPRTHETFHEEEEDMDSYQDRDLERLRRKWLNALTKRQEYLDQQLQKLVSKRDKTEDDADREAQLLEMRLTLTEERNAVMVPSAGSGIPGAPAEWTPVPGMETHIPVIFLDLNADDFSSQDNLDDPEAGGWDATLTGEEEEEFFELQIVKQHDGEVKAEASWDSAVHGCPQLSRGTPVDERLFLIVRVTVQLSHPADMQLVLRKRICVNVHGRQGFAQSLLKKMSHRSSIPGCGVTFEIVSNIPEDAQGVEEREALARMAANVENPASADSEAYIEKYLRSVLAVENLLTLDRLRQEVAVKEQLTGKGKLSRRSISSPNVNRLSGSRQDLIPSYSLGSNKGRWESQQDVSQTTVSRGIAPAPALSVSPQNNHSPDPGLSNLAASYLNPVKSFVPQMPKLLKSLFPVRDEKRGKRPSPLAHQPVPRIMVQSASPDIRVTRMEEAQPEMGPDVLVQTMGAPALKICDKPAKVPSPPPVIAVTAVTPAPEAQDGPPSPLSEASSGYFSHSVSTATLSDALGPGLDAAAPPGSMPTAPEAEPEAPISHPPPPTAVPAEEPPGPQQLVSPGRERPDLEAPAPGSPFRVRRVRASELRSFSRMLAGDPGCSPGAEGNAPAPGAGGQALASDSEEADEVPEWLREGEFVTVGAHKTGVVRYVGPADFQEGTWVGVELDLPSGKNDGSIGGKQYFRCNPGYGLLVRPSRVRRATGPVRRRSTGLRLGAPEARRSATLSGSATNLASLTAALAKADRSHKNPENRKSWAS
